Measurements as given in patent US20110104143.

B1: Active Caspase-8 (protein)
chain: SESQTLDKVYQMKSKPRGYCLIINNHNFAKAREKVPKLHSIRDRNGTHLDAGALTTTFEELHFEIKPHDDCTVEQIYEILKIYQLMDHSNMDCFICCILSHGDKGIIYGTDGQEAPIYELTSQFTGLKCPSLAGKPKVFFIQACQGDNYQKGIPVETDSEEQPYLEMDLSSPQTRYIPDEADFLLGMATVNNCVSYRNPAEGTWYIQSLCQSLRERCPRGDDILTILTEVNYEVSNKDDKKNMGKQMPQPTFTLRKKLVFPSD
B2: Active Caspase-2 (protein)
chain: GPVCLQVKPCTPEFYQTHFQLAYRLQSRPRGLALVLSNVHFTGEKELEFRSGGDVDHSTLVTLFKLLGYDVHVLCDQTAQEMQEKLQNFAQLPAHRVTDSCIVALLSHGVEGAIYGVDGKLLQLQEVFQLFDNANCPSLQNKPKMFFIQACRGDETDRGVDQQDGKNHAGSPGCEESDAGKEKLPKMRLPTRSDMICGYACLKGTAAMRNTKRGSWYIEALAQVFSERACDMHVADMLVKVNALIKDREGYAPGTEFHRCKEMSEYCSTLCRHLYLFPGHPPT

Tests used:
[1] = target: DDX3 (endogenous, full-length human DDX3 in tumor cell lysates), O00571
[2] = target: cIAP1, Q13490
cIAP1, Q13490, sequence (Q13490 whole entry): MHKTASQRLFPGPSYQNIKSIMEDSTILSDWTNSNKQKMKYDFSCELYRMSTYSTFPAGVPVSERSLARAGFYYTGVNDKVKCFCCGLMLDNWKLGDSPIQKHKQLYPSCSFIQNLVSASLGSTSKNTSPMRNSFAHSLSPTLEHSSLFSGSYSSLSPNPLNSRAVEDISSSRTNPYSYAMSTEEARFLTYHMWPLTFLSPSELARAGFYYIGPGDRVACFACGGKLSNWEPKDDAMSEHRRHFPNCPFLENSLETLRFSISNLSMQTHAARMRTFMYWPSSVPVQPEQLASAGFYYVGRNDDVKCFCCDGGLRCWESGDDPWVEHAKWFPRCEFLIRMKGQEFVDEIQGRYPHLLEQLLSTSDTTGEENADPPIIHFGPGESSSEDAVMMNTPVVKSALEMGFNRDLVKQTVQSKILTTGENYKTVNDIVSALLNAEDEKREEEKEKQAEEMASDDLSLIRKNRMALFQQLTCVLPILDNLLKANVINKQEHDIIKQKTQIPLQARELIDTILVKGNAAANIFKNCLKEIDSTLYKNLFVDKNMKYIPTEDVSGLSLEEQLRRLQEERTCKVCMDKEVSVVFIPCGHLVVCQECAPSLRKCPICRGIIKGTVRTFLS

DDX3 (endogenous, full-length human DDX3 in tumor cell lysates), O00571, sequence (O00571 whole entry, looked up): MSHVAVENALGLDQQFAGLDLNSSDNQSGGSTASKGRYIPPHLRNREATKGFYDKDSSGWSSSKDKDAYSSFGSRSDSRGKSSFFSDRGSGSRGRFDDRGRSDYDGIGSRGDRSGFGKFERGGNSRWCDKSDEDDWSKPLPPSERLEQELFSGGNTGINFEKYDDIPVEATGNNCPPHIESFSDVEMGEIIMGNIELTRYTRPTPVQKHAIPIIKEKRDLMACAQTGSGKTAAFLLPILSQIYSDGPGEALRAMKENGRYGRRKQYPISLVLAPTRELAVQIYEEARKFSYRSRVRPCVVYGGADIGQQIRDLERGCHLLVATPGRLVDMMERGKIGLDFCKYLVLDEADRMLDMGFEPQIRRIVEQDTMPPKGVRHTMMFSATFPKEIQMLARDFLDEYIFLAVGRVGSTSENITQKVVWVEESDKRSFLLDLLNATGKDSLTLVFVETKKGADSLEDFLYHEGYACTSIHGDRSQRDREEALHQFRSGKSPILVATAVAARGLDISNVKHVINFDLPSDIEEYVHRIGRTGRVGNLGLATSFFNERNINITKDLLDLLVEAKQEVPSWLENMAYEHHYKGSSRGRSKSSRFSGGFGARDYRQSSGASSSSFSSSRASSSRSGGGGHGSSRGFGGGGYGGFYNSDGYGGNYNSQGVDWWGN

| Protein | cleavage of DR5-associated DDX3 by active caspase, Western blot with anti-DDX3 antibody [1] | caspase-8 protease activity on the fluorogenic substrate Ac-IETD-AMC [2] |
| --- | --- | --- |
| B1 | DDX3 cleavage by caspase-8 in resistant cells was highly attenuated compared to sensitive cells | purified cIAP1 also suppressed caspase-8 protease activity completely |
| B2 | caspase-2 exhibited similar protease potential in both cells |  |
